In patent US20250122266A1 (TEXAS A AND M UNIVERSITY SYSTEM, published 2025):

Columns and labels:
[1] = molecular target: T1, plasma membrane targeting mCh (mCh-CAAX); experiment: cytosol-to-plasma-membrane translocation in HeLa cells under light
T1 construct: also called mCh tethered to PM

[2] = molecular target: mCh tethered to early endosome [EE]; experiment: cytosol-to-early-endosome translocation in HeLa cells under light
NE-tethered mCh-lamin A [3] = molecular target: T2, NE-tethered mCh-lamin A (UniProt P02545 1-664); experiment: nucleoplasmic GFP signal in HeLa cells over dark-light cycles
T2 sequence (P02545 whole entry): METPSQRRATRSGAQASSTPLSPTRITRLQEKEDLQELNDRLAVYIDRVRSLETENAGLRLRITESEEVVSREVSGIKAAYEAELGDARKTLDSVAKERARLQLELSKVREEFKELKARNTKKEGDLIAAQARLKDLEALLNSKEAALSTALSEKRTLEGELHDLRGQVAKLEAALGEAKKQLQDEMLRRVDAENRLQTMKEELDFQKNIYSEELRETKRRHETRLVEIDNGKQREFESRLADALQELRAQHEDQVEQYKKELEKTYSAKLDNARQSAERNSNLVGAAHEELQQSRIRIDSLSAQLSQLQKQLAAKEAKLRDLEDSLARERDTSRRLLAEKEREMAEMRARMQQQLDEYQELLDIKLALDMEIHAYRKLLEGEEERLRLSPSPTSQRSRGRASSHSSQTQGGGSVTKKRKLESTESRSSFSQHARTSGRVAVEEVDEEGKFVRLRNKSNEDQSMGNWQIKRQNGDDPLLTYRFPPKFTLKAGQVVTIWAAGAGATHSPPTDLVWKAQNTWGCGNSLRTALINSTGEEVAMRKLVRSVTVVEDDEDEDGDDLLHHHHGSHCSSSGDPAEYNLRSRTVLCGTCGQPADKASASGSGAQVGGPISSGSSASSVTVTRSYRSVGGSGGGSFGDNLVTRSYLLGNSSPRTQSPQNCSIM

NE-tethered mCh-lamin A [4] = molecular target: T2, NE-tethered mCh-lamin A; experiment: NE/NP ratio of GFP signal in HeLa cells, before and after light

B1: GFP-2xsunbody (dimeric concatemer of sunbody) (VHH, not shown: large carriers)
chain: LATTLERIEKNFVITDPRLPDNPIIFASDSFLQLTEYSREEILGRNCRFLQGPETDRATVRKIRDAIDNQTEVTVQLINYTKSGKKFWNLFHLQPMRDQKGDVQYFIGVQLDGTEHVRDAAEREGVMLIKKTAENIDEAAKELKLMAQVQLVESGGGLVQAGGSLRLSCAVSGRPFSEYNLGWFRQAPGKEREFVARIRSSGTTVYTDSVKGRFSASRDNALERIEKNFVITDPRLPDNPIIFASDSFLQLTEYSREEILGRNCRFLQGPETDRATVRKIRDAIDNQTEVTVQLINYTKSGKKFWNLFHLQPMRDQKGDVQYFIGVQLDGTEHVRDAAEREGVMLIKKTAENIDEAAKNMGYLQLNSLEPEDTAVYYCAMSRVDTDSPAFYDYWGQGTQVTVSTPRSLATTLERIEKNFVITDPRLPDNPIIFASDSFLQLTEYSREEILGRNCRFLQGPETDRATVRKIRDAIDNQTEVTVQLINYTKSGKKFWNLFHLQPMRDQKGDVQYFIGVQLDGTEHVRDAAEREGVMLIKKTAENIDEAAKELKLMAQVQLVESGGGLVQAGGSLRLSCAVSGRPFSEYNLGWFRQAPGKEREFVARIRSSGTTVYTDSVKGRFSASRDNALERIEKNFVITDPRLPDNPIIFASDSFLQLTEYSREEILGRNCRFLQGPETDRATVRKIRDAIDNQTEVTVQLINYTKSGKKFWNLFHLQPMRDQKGDVQYFIGVQLDGTEHVRDAAEREGVMLIKKTAENIDEAAKNMGYLQLNSLEPEDTAVYYCAMSRVDTDSPAFYDYWGQGTQVTVSTPRS
notes: also called tandem sunbody
fold increase in the signal-to-background ratio against 1x sunbody [1]: > 2 fold
fold increase in the signal-to-background ratio against 1x sunbody [2]: > 2 fold

B2: GFP-sunbody (anti-mCherry nanobody LaM8 with LOV2 at S0 and S3) (VHH, not shown: large carriers)
chain: LATTLERIEKNFVITDPRLPDNPIIFASDSFLQLTEYSREEILGRNCRFLQGPETDRATVRKIRDAIDNQTEVTVQLINYTKSGKKFWNLFHLQPMRDQKGDVQYFIGVQLDGTEHVRDAAEREGVMLIKKTAENIDEAAKELKLMAQVQLVESGGGLVQAGGSLRLSCAVSGRPFSEYNLGWFRQAPGKEREFVARIRSSGTTVYTDSVKGRFSASRDNALERIEKNFVITDPRLPDNPIIFASDSFLQLTEYSREEILGRNCRFLQGPETDRATVRKIRDAIDNQTEVTVQLINYTKSGKKFWNLFHLQPMRDQKGDVQYFIGVQLDGTEHVRDAAEREGVMLIKKTAENIDEAAKNMGYLQLNSLEPEDTAVYYCAMSRVDTDSPAFYDYWGQGTQVTVSTPRS
notes: also called S0+S3; anti-mCh GFP-tagged sunbody
half-life of light-triggered translocation to the antigen (t½, on) (NE-tethered mCh-lamin A [3]): 2.6 s
light-induced change in the NE/NP ratio (NE-tethered mCh-lamin A [4]): > 80%
